One molecule from PMC9228142, “Going Retro, Going Viral: Experiences and Lessons in Drug Discovery from COVID-19” can be followed below.

This series concerns the target nsp12 (RdRp catalytic subunit);nsp7;nsp8 (SARS-CoV-2;SARS-CoV-2;SARS-CoV-2, UniProt P0DTD1;P0DTD1;P0DTD1 4393-5324;3860-3942;3943-4140, ||). The experiment in a line: EMSA. The following applies: protein: recombinant;recombinant;recombinant; tags: untagged (SUMO fusion cleaved, Ni2+-NTA and SEC purified);;; copies: 1;1;2; label: 5'-Cyanine 5.5. (In general: Mobility shift assays separate free from complexed probe on a gel.)

In the case of AAAAGAAAAGACGCGUAGUUUUCUACGCG (structured_RNA) [GA1 RNA scaffold], the binding result is reported as “binds”.
